From US20090202508A1, “NEGATIVE REGULATION OF HYPOXIA INDUCIBLE FACTOR 1 BY OS-9” (THE JOHNS HOPKINS UNIVERSITY, priority 2004, published 2009)

What was measured:
HIF-1 = test: HIF-1-dependent p2.1 luciferase reporter assay; format: cell-based, human
Description: (§1) 293 or Hep3B cells were seeded onto 24-well plates at 8×10^4 cells per well of a 24-well plate. The following day, the cells were transfected with plasmid DNAs using Fugene-6 (Roche) for 293 and Lipofectamine Plus (Invitrogen) for Hep3B cells. After 24 h, the cells were exposed to 20% or 1% O2 for 24 h. Cells were lysed, and the luciferase activities were determined by multi-well luminescence reader (PerkinElmer), using the Dual-Luciferase Reporter Assay System (Promega). For p2.1 reporter assay, cells were co-transfected with 15 ng of control reporter pSV-Renilla, 135 ng of HIF-1 reporter p2.1, and expression vector encoding HA-OS-9, HIF-1α, or empty vector. Unless indicated otherwise, 200 ng of HIF-1α, 400 ng of HA-OS-9, 1 ng of PHD2, or 1 ng of HIF-1α triple mutant P402A/P564A/N803A (HIF-1α TM) expression vector was used for co-transfection. For pGalA reporter assays, Hep3B cells were co-transfected with 12.5 ng of pSV-Renilla, reporter 200 ng of pG5ElbLuc, 100 ng of expression vector encoding the GAL4 DNA-binding domain alone or fused to HIF-1α residues 531-826 (Jiang et al. 1997) and empty vector or vector encoding HA-OS-9. For immunoblot assays, 293 cells were seeded at 3×10^6 cells per 10-cm plate. The following day, the cells were co-transfected with expression vectors using Fugene-6. After 24 h, the cells were exposed to 20% or 1% O2 with or without MG132 (10 μM) for 8 h and lysed in 200 μl of lysis buffer containing 50 mM Tris-Cl (pH 8.0), 150 mM NaCl, 5 mM EDTA, 0.1% SDS, 1% NP-40, 0.5% sodium deoxycholate, Complete protease inhibitor cocktail (Roche), sodium orthovanadate, and sodium vanadate (Sigma).

PHD2 [1] = target: T1, PHD2 (Homo sapiens, UniProt Q9GZT9); test: Co-immunoprecipitation of HA-OS-9 with PHD2 in 293 cells; format: cell-based; conditions: anti-HA immunoprecipitates, immunoblot; FIG. 5
T1 construct: expressed in transfected cells; host or cells: 293 cells (whole cell lysate used as the enzyme source)
T1 sequence (Q9GZT9 whole entry): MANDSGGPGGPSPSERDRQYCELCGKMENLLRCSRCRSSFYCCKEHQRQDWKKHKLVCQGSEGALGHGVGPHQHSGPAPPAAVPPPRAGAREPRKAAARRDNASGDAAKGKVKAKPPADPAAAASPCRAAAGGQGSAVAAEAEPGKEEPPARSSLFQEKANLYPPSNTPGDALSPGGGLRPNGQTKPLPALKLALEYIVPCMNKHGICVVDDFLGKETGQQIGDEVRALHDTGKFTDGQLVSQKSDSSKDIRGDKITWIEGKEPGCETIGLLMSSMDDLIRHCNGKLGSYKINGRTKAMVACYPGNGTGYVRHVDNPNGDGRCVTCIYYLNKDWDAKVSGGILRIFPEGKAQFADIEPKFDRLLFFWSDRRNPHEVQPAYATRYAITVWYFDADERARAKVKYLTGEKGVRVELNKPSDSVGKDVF
Description: (§2) 293 cells (3×10^6 cells per […] plate) were transfected with Lipofectamine Plus and a total of 10 μg of expression vectors. After 24 h, cells were lysed with PBS/0.1% Tween-20. 400 μg of whole cell lysate (brought to a final volume of 200 μl with lysis buffer) were immunoprecipitated using anti-HA affinity matrix (Roche) followed by immunoblot assay using antibody against HIF-1α (Zhong et al. 1999), PHD 1-3 (Novus Biologicals Inc.), or HA (Roche).

[2] = test system: HIF-1α transactivation domains (residues 531-826); test: GAL4-dependent reporter (pGalA) transactivation assay; format: cell-based, human; conditions: co-transfection of OS-9 expression vector; FIG. 3B
Description: as §1, with “After 24 h, the cells were exposed to 20% or 1% O2 with or without MG132 (10 μM) for 8 h and lysed in 200 μl of lysis buffer containing 50 mM Tris-Cl (pH 8.0), 150 mM NaCl, 5 mM EDTA, 0.1% SDS, 1% NP-40, 0.5% sodium deoxycholate, Complete protease inhibitor cocktail (Roche), sodium orthovanadate, and sodium vanadate (Sigma).” left out

PHD2 [3] = target: T1, PHD2; test: PHD binding assay (pull down of PHD2 with GST-HIF-1α (531-826)); conditions: lysates from cells transfected with OS-9 and PHD2 vectors versus PHD2 vector alone; FIG. 7B
Description: For in vitro VHL binding assay, preincubated GstA and 5 μl of [^35S]methionine-labeled VHL protein were mixed in a total volume of 300 μl of PBS-T with 1 mM desferrioxamine and incubated at 4° C. for 90 min. 20 ul of glutathione-Sepharose-4B beads (Amersham Biosciences) was added and incubated for 30 min with rotation. Beads were washed three times with PBS-T. Proteins were eluted in Laemmli sample buffer, fractionated by SDS-PAGE, and detected by autoradiography. For PHD binding assay, […] of GST-HIF-1α was preincubated with 50 μg of -whole cell lysate in a total volume of 50 μl with PBS-T at 30° C. for 10 min with or without 1 mM DMOG. The reaction was terminated by addition of desferrioxamine to 1 mM, 20 μl of glutathione-Sepharose-4B beads were added and incubated for 30 min. The beads were washed three times with PBS-T. Bound protein was eluted in Laemmli sample buffer, fractionated by SDS-PAGE, and subjected to immunoblot assay using antibodies against PHD2 (Novus Biologicals Inc.) or GST (Amersham).

PHD3 = target: T2, PHD3 (Homo sapiens, UniProt Q9H6Z9); test: Co-immunoprecipitation of HA-OS-9 with PHD3 in 293 cells; format: cell-based; conditions: anti-HA immunoprecipitates, immunoblot; FIG. 5
T2 construct: expressed in transfected cells; host or cells: 293 cells
T2 sequence (Q9H6Z9 whole entry): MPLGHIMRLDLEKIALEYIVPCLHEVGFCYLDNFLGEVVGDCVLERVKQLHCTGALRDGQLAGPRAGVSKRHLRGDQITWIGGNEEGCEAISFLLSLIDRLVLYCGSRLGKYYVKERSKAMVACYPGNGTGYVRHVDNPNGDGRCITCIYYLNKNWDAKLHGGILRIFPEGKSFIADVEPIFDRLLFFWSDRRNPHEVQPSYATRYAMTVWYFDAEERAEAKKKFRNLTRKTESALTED
Description: as §2

HIF-1α [4] = test: In vitro interaction (GST pull-down) assay of OS-9 with GST-HIF-1α fusion proteins; format: binding, human; conditions: FIG. 2A
Description: (§3) To prepare GST fusion proteins, E. coli BL21-Gold(DE3)pLysS (Stratagene) was transformed with a pGEX expression vector and treated for 4 h with 0.5 mM isopropyl-D-thiogalactoside. Pelleted cells were lysed by sonication in PBS containing 1% Triton X-100 and Complete protease inhibitor cocktail (Roche). After centrifugation, supernatants were applied to glutathione-Sepharose 4B beads (Amersham Pharmiacia Biotech). GST fusion proteins were eluted with 10 mM reduced glutathione in 50 mM Tris-HCl (pH 8.0) and stored at −80° C. The concentration and purity of eluates were determined by the Bradford method and by SDS-PAGE. [^35S]methionine-labeled proteins were generated in reticulocyte lysates with plasmids encoding HA-OS-9 or FLAG-VHL using the TNT T7 coupled transcription/translation system (Promega). Ten μl of in vitro-translated ^35S-labeled protein was mixed with 4 μg of GST or GST-HIF-1α fusion protein (Mahon et al. 2001) in a final volume of 200 μof PBS-T binding buffer (Dulbecco's PBS [pH 7.4], 0.1% Tween-20). The binding reaction was performed at 4° C. for 2 h with rotation followed by the addition of […] pre-washed glutathione-Sepharose 4B beads. After 30 min of mixing on a rotator, the beads were washed three times with PBS-T. Proteins were eluted in Laemmli sample buffer and analyzed by SDS-PAGE followed by autoradiography.

HIF-1α [5] = test: HIF-1α protein levels by immunoblot in transfected 293 cells; format: cell-based, human
Description: as §1

HIF-1α [6] = target: HIF-1α (Homo sapiens, UniProt Q16665); test: In vitro interaction (GST pull-down) assay of OS-9 with GST-HIF-1α fusion proteins; format: binding; set-up: made in house; host or cells: E. coli BL21-Gold(DE3)pLysS (GST fusion); rabbit reticulocyte lysate TNT T7 (HA-OS-9); conditions: increasing amounts of in vitro-translated OS-9, desferrioxamine present; FIG. 6C
Chain of HIF-1α (Homo sapiens, UniProt Q16665) (Q16665 531-826): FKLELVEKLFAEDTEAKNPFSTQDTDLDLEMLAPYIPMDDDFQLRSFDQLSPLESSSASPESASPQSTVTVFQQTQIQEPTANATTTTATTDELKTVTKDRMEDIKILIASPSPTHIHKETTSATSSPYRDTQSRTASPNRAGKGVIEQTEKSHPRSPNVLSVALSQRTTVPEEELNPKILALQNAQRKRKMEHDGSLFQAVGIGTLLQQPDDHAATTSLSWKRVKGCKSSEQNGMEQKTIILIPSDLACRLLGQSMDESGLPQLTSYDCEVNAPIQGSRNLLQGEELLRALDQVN
Description: as §3

[7] = 293 cells, co-transfection of OS-9, FIG. 4B

Induction of p2.1 reporter activity by HIF-1α (HIF-1; [7]): significantly inhibited | Reporter gene activity induced by hypoxia and/or HIF-1α expression vector (HIF-1; co-transfection of OS-9 expression vector, Hep3B cells, 20% or 1% O2, FIG. 3A): dramatically inhibited | interaction of OS-9 with PHD2 (PHD2 [1]): interaction | binding of PHD2 to GST-HIF-1α (531-826) (PHD2 [3]): increased binding | interaction of OS-9 with PHD3 (PHD3): interaction | binding of OS-9 to GST-HIF-1α (HIF-1α [4]; HIF-1α residues 1-329, 429-608, 531-610, and 786-826): did not bind | binding of OS-9 to GST-HIF-1α (HIF-1α [4]; HIF-1α residues 531-826, 653-826, or 692-826): efficiently bound | binding of OS-9 to GST-HIF-1α (531-826) (HIF-1α [6]): dose-dependent manner
B1: OS-9: human OS-9 protein (667-residue isoform), HA-tagged, from expression vector or in vitro-translated (protein)
chain: MAAETLLSSLLGLLLLGLLLPASLTGGVGSLNLEELSEMRYGIEILPLPVMGGQSQSSDVVIVSSKYKQRYECRLPAGAIHFQREREEETPAYQGPGIPELLSPMRDAPCLLKTKDWWTYEFCYGRHIQQYHMEDSEIKGEVLYLGYYQSAFDWDDETAKASKQHRLKRYHSQTYGNGSKCDLNGRPREAEVRFLCDEGAGISGDYIDRVDEPLSCSYVLTIRTPRLCPHPLLRPPPSAAPQAILCHPSLQPEEYMAYVQRQADSKQYGDKIIEELQDLGPQVWSETKSGVAPQKMAGASPTKDDSKDSDFWKMLNEPEDQAPGGEEVPAEEQDPSPEAADSASGAPNDFQNNVQVKVIRSPADLIRFIEELKGGTKKGKPNIGQEQPVDDAAEVPQREPEKERGDPERQREMEEEEDEDEDEDEDEDERQLLGEFEKELEGILLPSDRDRLRSEVKAGMERELENIIQETEKELDPDGLKKESERDRAMLALTSTLNKLIKRLEEKQSPELVKKHKKKRVVPKKPPPSPQPTEEDPEHRVRVRVTKLRLGGPNQDLTVLEMKRENPQLKQIEGLVKELLEREGLTAAGKIEIKIVRPWAEGTEEGARWLTDEDTRNLKEIFFNILVPGAEEAQKERQRQKELESNYRRVWGSPGGEGTGDLDEFDF
modifications: left off: small tags and cut ends
notes: human OS-9 protein (667-residue isoform), HA-tagged, from expression vector or in vitro-translated
reporter gene transcription mediated by HIF-1 heterodimers containing HIF-1α-TM (HIF-1; [7]): neither OS-9 nor PHD2 inhibited | transactivation of GAL4-dependent reporter by pGalA [2]: no significant inhibitory effect | HIF-1α protein levels (HIF-1α [5]; 293 cells co-transfected with HIF-1α and OS-9 expression vector, FIG. 3C): reduced | levels of HIF-1α-TM (P402A/P564A/N803A) (HIF-1α [5]; 293 cells co-transfected with OS-9 expression vector, FIG. 4A): no effect | levels of FLAG-tagged HIF-1α (HIF-1α [5]; 293 cells, increasing amounts of PHD2 expression vector, presence of OS-9, FIG. 6A): dramatically reduced
